By Km is commonly meant the substrate concentration at which the rate is half of its maximum. Usually kcat stands for the number of substrate molecules converted per active site and unit of time at saturation. Usually kcat/Km stands for the turnover number divided by the Michaelis constant.

Here are results for five compounds from publication PMC7179087 (Biochemistry, 2019).

Conditions in all cases: adenylation; co-substrate ATP
One series relates to PvfCPf0-1.
For series [1], the system named is CC(C)C[C@H](N)C(=O)O. The series can be described thus: purified protein.
The subject of series [2] is CC(C)[C@H](N)C(=O)O. Nature of the series: purified protein.
In series [3] the test system is CC[C@H](C)[C@H](N)C(=O)O. The series can be described thus: purified protein.
Series [4] relates to CC(C)C[C@H](N)C(=O)O. The series can be described thus: purified protein. The series is classed as biochemical, Pseudomonas entomophila.
The subject of series [5] is CC(C)[C@H](N)C(=O)O. Nature of the series: purified protein. The series is classed as biochemical, Pseudomonas entomophila.
In series [6] the test system is CC[C@H](C)[C@H](N)C(=O)O. Nature of the series: purified protein. Type of series: biochemical, Pseudomonas entomophila.
Another series relates to PvfC-AWH6. The series can be described thus: ATP-[…]PPi exchange, steady-state kinetics. The series is classed as biochemical, Pseudomonas fluorescens.

Consider `CC(C)[C@H](N)C(=O)O` [L-Val], for which the Michaelis constant (Km) in the series with PvfCPf0-1 worked out at 2400 ± 800 µM.
For PvfCL48 (Pseudomonas entomophila L48), the Km came to 7000 ± 3000 µM in the series on CC(C)C[C@H](N)C(=O)O [1], 1200 ± 800 µM in the series on CC(C)[C@H](N)C(=O)O [2] and 8000 ± 2000 µM in the series on CC[C@H](C)[C@H](N)C(=O)O [3]. The values for the kcat with CC(C)C[C@H](N)C(=O)O [1], in the series with CC(C)[C@H](N)C(=O)O [2] and in the series with CC[C@H](C)[C@H](N)C(=O)O [3] were 0.65 ± 0.1 s⁻¹, 13.1 ± 0.7 s⁻¹ and 1.3 ± 0.2 s⁻¹, respectively. In addition, the kcat/Km in the series with CC(C)C[C@H](N)C(=O)O [1] turned out to be 93 M⁻¹ s⁻¹; in the series with CC(C)[C@H](N)C(=O)O [2], 11000 M⁻¹ s⁻¹; with CC[C@H](C)[C@H](N)C(=O)O [3], 160 M⁻¹ s⁻¹.
For the compound “PvfCL48 (Pseudomonas entomophila L48; V444I)”, in the series on CC(C)C[C@H](N)C(=O)O [4], the Km amounted to 3000 ± 1000 µM, the catalytic constant (kcat) was found to be 0.71 ± 0.09 s⁻¹ and the kcat/Km amounted to 240 M⁻¹ s⁻¹. Moreover, in the series with CC(C)[C@H](N)C(=O)O [5], the Km came out at 1500 ± 200 µM, the kcat amounted to 10.7 ± 0.5 s⁻¹ and the kcat/Km was 7100 M⁻¹ s⁻¹. In the series with CC[C@H](C)[C@H](N)C(=O)O [6], the Michaelis constant (Km) was 3700 ± 700 µM, the turnover number (kcat) came out at 1.2 ± 0.09 s⁻¹ and the catalytic efficiency (kcat/Km) turned out to be 320 M⁻¹ s⁻¹.
As to `CC(C)C[C@H](N)C(=O)O` [L-Leu], in the series on PvfC-AWH6, the Km turned out to be 2100 ± 600 µM.
Turning to “PvfCL48 (Pseudomonas entomophila L48; A381S/I467L/L384I/V444M)”, in the series with CC(C)C[C@H](N)C(=O)O [4], the Km was found to be 15000 ± 9000 µM, the kcat worked out at 2.2 ± 0.8 s⁻¹ and the kcat/Km was determined as 150 M⁻¹ s⁻¹. Moreover, in the series on CC(C)[C@H](N)C(=O)O [5], the Michaelis-Menten constant (Km) came out at 1200 ± 700 µM, the kcat was 0.03 ± 0.01 s⁻¹ and the kcat/Km came out at 25 M⁻¹ s⁻¹.
